# From patent US20240181058A1, “[…] ANTIGEN RECEPTOR TARGETING ONCOLYTIC VIRUS-DERIVED PROTEIN, […], AND USES OF BOTH” (priority 2021, published 2024)
# Biological target: protein A56 (Vaccinia virus, UniProt Q01218)
Molecule,Western blot band on denatured protein,"Western blotting, binding affinity in a two-dimensional structure using PAGE"
"Ab13 (protein, amino acid sequence for anti-UTTA scFv (Ab13)) scFv: QMQLVESGAEVKKTGSSVKVSCKASGDTLTYRFLHWVRQAPGQAPEWMGWITPFNDNTNYAQKFQDRVTITRDRSMSTAYMELSSLRSEDTAVYYCATGGGNNYYGMEVWGQGTPITVSSGLGGLGGGGSGGGGSGGSSGVGSSYELTQPLSLSVSPGQTASITCSGDKLGDKFTSWYQQQPGQSPVLVIYQDAKRPSGIPERFSGSNSGSTATLTISGTQSMDEADYYCQAWDSSSVVFGGGTKLTVL",many weak bands with small sizes were observed or no band was observed,binding did not occur
"Ab19 (protein, amino acid sequence for anti-UTTA scFv (Ab19)) scFv: QVQLVESGAEVRRPGSSVKVSCKTSGVTFSGYVLSWVRQAPGHGLEWMGRIIPLIDVENYAREFQGRMKITADKSTNTVYMELNNLRSEDTAVYYCAKSVVRGLDYYYYGFDVWGQGTTVTVSSGLGGLGGGGSGGGGSGGSSGVGSSYELTQPPSLSVAPGKTARITCGGNNIGSKSVHWYQQKPGQAPRLVTYYDGNRPSGIPERFSGSNSGNTATLIISRVEAGDEADYYCQVWDSSSDQGVFGTGTKVTVL",many weak bands with small sizes were observed or no band was observed,a linear single band was identified
"Ab16 (protein, amino acid sequence for anti-UTTA scFv (Ab16)) scFv: QVQLQQSGPGLVKPSQTLSLTCAISGDSVSSNSAAWNWIRQSPSRGLEWLGRTYYRSKWYNDYAVSVKSRITINPDTSKNQFSLQLNSVTAVDTAVYYCAKSYAGPISYYYYGLDVWGQGTTVTVSSGLGGLGGGGSGGGGSGGSSGVGSQSALTQPASVSGSPGQSVTISCTGTSSDIGRYNLVSWYQQHPGKAPKLMIYGGSKRPSGVSNRFSGSNSDNTASLTISGLRAEDEADYYCSSYASSSTPYVFGTGTKVTVL",many weak bands with small sizes were observed or no band was observed,linear multiple bands were identified
"Ab18 (protein, amino acid sequence for anti-UTTA scFv (Ab18)) scFv: QVQLVESGGGLVQPGKSLRLSCAASGFTFSTYGMTWVRQAPGKGLEWVSGISGGGSSTNYADSVKGRFIISRDNSNNTLYLQMNSLRAEDTAVYYCARWGVMLSFDYWGQGTPVTVSSGLGGLGGGGSGGGGSGGSSGVGSDIQMTQSPSTLPASVGDRVTITCRASYSVSPWLAWYQQKPGKAPKLLIYKASTLESGVPSRFSGSGSGTEFTLTISSLQPDDFATYYCQQFNSYMMYTFGQGTKLEIK",,linear multiple bands were identified
